Source: patent US20230183713A1, “SITE-SPECIFIC RECOMBINASES FOR EFFICIENT AND SPECIFIC GENOME EDITING” (TECHNISCHE UNIVERSITÄt DRESDEN, published 2023)

Key:
[1] = target: T1, Cre recombinase monomer with Q311R mutation
T1 chain: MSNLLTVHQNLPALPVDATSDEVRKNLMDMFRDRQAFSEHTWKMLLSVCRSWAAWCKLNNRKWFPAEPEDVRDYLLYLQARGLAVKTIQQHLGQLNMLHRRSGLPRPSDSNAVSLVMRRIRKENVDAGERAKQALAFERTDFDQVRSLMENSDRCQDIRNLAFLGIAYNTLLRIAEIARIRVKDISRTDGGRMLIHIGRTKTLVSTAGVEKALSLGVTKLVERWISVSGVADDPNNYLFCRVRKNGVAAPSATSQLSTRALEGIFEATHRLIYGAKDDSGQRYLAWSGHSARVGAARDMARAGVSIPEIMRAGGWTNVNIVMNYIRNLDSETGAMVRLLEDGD

[2] = target: T2, Cre recombinase monomer with R292Q mutation
T2 chain: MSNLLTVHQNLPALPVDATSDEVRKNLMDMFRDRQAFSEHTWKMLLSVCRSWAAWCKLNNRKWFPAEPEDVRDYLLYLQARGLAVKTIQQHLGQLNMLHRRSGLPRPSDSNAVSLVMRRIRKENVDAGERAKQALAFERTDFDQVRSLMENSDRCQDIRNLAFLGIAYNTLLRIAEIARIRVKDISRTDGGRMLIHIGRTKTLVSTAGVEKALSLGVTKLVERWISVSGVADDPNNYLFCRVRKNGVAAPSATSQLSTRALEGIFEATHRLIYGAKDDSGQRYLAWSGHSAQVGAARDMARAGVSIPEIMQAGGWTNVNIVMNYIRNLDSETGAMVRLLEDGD

[3] = target: T3, Cre recombinase monomer with K201Q mutation
T3 chain: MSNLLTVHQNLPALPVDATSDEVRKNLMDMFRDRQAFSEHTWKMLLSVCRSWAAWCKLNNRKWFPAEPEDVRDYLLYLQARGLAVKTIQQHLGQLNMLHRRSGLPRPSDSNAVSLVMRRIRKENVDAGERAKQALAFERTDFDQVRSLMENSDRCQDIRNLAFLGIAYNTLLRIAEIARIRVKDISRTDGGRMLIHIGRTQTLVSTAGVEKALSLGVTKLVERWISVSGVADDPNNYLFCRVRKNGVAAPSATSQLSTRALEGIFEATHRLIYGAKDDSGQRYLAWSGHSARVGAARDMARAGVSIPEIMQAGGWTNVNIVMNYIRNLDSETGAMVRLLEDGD

[4] = target: T4, Cre recombinase monomer with R292A mutation
T4 chain: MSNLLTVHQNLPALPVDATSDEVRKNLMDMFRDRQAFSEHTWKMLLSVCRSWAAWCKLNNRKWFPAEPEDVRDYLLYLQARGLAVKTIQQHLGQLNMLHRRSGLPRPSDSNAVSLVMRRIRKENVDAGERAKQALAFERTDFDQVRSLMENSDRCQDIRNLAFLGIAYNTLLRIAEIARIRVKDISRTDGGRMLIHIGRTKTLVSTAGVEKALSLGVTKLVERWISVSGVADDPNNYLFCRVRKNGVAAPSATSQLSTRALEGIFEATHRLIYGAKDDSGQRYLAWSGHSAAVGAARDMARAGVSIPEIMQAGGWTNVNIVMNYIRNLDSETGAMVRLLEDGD

[5] = target: T5, Cre recombinase monomer with W315N mutation
T5 chain: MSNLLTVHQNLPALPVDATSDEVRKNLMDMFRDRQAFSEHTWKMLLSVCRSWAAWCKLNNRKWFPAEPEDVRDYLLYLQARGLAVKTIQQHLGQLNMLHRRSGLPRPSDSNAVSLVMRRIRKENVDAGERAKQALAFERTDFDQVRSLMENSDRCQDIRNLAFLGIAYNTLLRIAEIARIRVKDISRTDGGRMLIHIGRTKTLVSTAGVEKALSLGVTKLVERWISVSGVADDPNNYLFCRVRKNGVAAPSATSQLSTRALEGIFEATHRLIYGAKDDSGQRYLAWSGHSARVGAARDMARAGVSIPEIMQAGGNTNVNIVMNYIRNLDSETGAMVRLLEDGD

[6] = target: T6, Cre recombinase monomer with K201P mutation
T6 chain: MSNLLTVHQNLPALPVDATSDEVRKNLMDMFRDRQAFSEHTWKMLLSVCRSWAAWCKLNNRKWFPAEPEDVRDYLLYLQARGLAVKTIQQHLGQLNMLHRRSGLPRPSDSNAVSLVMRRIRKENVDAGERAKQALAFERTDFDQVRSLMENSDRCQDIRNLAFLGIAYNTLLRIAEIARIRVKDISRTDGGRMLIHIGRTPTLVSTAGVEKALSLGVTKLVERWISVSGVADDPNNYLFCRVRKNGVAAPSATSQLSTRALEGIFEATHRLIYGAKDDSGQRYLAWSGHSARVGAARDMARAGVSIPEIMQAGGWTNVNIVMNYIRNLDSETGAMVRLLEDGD

B1: Cre recombinase monomer with K201C mutation (protein)
chain: MSNLLTVHQNLPALPVDATSDEVRKNLMDMFRDRQAFSEHTWKMLLSVCRSWAAWCKLNNRKWFPAEPEDVRDYLLYLQARGLAVKTIQQHLGQLNMLHRRSGLPRPSDSNAVSLVMRRIRKENVDAGERAKQALAFERTDFDQVRSLMENSDRCQDIRNLAFLGIAYNTLLRIAEIARIRVKDISRTDGGRMLIHIGRTCTLVSTAGVEKALSLGVTKLVERWISVSGVADDPNNYLFCRVRKNGVAAPSATSQLSTRALEGIFEATHRLIYGAKDDSGQRYLAWSGHSARVGAARDMARAGVSIPEIMQAGGWTNVNIVMNYIRNLDSETGAMVRLLEDGD
[1]
  Median dimer activity (recombination on loxP): 93%
[2]
  Median dimer activity (recombination on loxP): 52%

B2: Cre recombinase monomer with E176W mutation (protein)
chain: MSNLLTVHQNLPALPVDATSDEVRKNLMDMFRDRQAFSEHTWKMLLSVCRSWAAWCKLNNRKWFPAEPEDVRDYLLYLQARGLAVKTIQQHLGQLNMLHRRSGLPRPSDSNAVSLVMRRIRKENVDAGERAKQALAFERTDFDQVRSLMENSDRCQDIRNLAFLGIAYNTLLRIAWIARIRVKDISRTDGGRMLIHIGRTKTLVSTAGVEKALSLGVTKLVERWISVSGVADDPNNYLFCRVRKNGVAAPSATSQLSTRALEGIFEATHRLIYGAKDDSGQRYLAWSGHSARVGAARDMARAGVSIPEIMQAGGWTNVNIVMNYIRNLDSETGAMVRLLEDGD
[3]
  Median dimer activity (recombination on loxP): 28%
[1]
  Median dimer activity (recombination on loxP): 90%

B3: Cre recombinase monomer with Q133H mutation (protein)
chain: MSNLLTVHQNLPALPVDATSDEVRKNLMDMFRDRQAFSEHTWKMLLSVCRSWAAWCKLNNRKWFPAEPEDVRDYLLYLQARGLAVKTIQQHLGQLNMLHRRSGLPRPSDSNAVSLVMRRIRKENVDAGERAKHALAFERTDFDQVRSLMENSDRCQDIRNLAFLGIAYNTLLRIAEIARIRVKDISRTDGGRMLIHIGRTKTLVSTAGVEKALSLGVTKLVERWISVSGVADDPNNYLFCRVRKNGVAAPSATSQLSTRALEGIFEATHRLIYGAKDDSGQRYLAWSGHSARVGAARDMARAGVSIPEIMQAGGWTNVNIVMNYIRNLDSETGAMVRLLEDGD
[4]
  Median dimer activity (recombination on loxP): 48%
[5]
  Median dimer activity (recombination on loxP): 33%
[1]
  Median dimer activity (recombination on loxP): 96%

B4: Cre recombinase monomer with K201D mutation (protein)
chain: MSNLLTVHQNLPALPVDATSDEVRKNLMDMFRDRQAFSEHTWKMLLSVCRSWAAWCKLNNRKWFPAEPEDVRDYLLYLQARGLAVKTIQQHLGQLNMLHRRSGLPRPSDSNAVSLVMRRIRKENVDAGERAKQALAFERTDFDQVRSLMENSDRCQDIRNLAFLGIAYNTLLRIAEIARIRVKDISRTDGGRMLIHIGRTDTLVSTAGVEKALSLGVTKLVERWISVSGVADDPNNYLFCRVRKNGVAAPSATSQLSTRALEGIFEATHRLIYGAKDDSGQRYLAWSGHSARVGAARDMARAGVSIPEIMQAGGWTNVNIVMNYIRNLDSETGAMVRLLEDGD
[6]
  Median dimer activity (recombination on loxP): 70%
